Assay results published in patent US20250312473A1, “B7H3 ANTIBODY DRUG CONJUGATES” (BEONE MEDICINES I GMBH, priority 2022, published 2025).

Biological target: T1, ECD of human 4Ig-B7H3 (Homo sapiens, UniProt Q5ZPR3)
T1 construct: ECD of human 4Ig-B7H3 (Sinobiological, Cat: 11188-H08H); purchased Sinobiological 11188-H08H
T1 sequence (Q5ZPR3 29-466 limits assumed): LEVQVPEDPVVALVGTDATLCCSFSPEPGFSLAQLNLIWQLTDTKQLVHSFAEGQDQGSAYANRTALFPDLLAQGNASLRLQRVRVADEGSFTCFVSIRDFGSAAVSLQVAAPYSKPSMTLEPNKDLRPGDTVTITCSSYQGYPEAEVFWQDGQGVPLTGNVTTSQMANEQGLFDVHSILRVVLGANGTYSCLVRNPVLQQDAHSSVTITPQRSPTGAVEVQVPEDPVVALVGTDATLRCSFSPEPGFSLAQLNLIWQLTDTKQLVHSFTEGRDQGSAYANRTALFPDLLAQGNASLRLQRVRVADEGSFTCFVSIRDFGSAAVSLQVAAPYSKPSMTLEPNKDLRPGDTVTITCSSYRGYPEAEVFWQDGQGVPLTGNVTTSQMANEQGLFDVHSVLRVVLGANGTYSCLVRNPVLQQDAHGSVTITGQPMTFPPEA
Assay: SPR affinity determination
Type: binding
Excerpt: For affinity determination, antibodies were captured by anti-human Fc surface, and used in an affinity assay based on surface plasmon resonance (SPR) technology. The results of SPR-determined binding profiles of humanized antibodies to ECD of human 4Ig-B7H3 (Sinobiological, Cat: 11188-H08H) were summarized in Table 20.

koff (Test 1): 1.04e-05 s⁻¹
kon (Test 1): 31500 M⁻¹ s⁻¹
koff (Test 2): 0.000227 s⁻¹
kon (Test 2): 369000 M⁻¹ s⁻¹
Kd (read-out: dissociation constants): 0.6 nM
B1: BGA-4348: "1^st version of humanized antibody BGA-4348", CDR-grafted from BGA-3295, human IgG1 variant format (antibody)
heavy: QIQLVQSGAEVKKPGSSVKVSCKASGYTFTNYDINWVRQAPGQGLEWMGWIYPGDGSAYYNEKFKGRATITADKSTSTAYMELSSLRSEDTAVYYCARWGYGGVPFAYWGQGTLVTVSSASTKGPSVFPLAPSSKSTSGGTAALGCLVKDYFPEPVTVSWNSGALTSGVHTFPAVLQSSGLYSLSSVVTVPSSSLGTQTYICNVNHKPSNTKVDKKVEPKSCDKTHTCPPCPAPPAAGPSVFLFPPKPKDTLMISRTPEVTCVVVDVSHEDPEVKFNWYVDGVEVHNAKTKPREEQYNSTYRVVSVLTVLHQDWLNGKEYKCKVSNKALAAPIEKTISKAKGQPREPQVYTLPPSRDELTKNQVSLTCLVKGFYPSDIAVEWESNGQPENNYKTTPPVLDSDGSFFLYSKLTVDKSRWQQGNVFSCSVMHEALHNHYTQKSLSLSPGK
light: DIVMTQSPDSLAVSLGERATINCKSSQSLLNDINQKNYLAWYQQKPGQSPKLLVYFASTGVSGVPDRFSGSGSGTDFTLTISSLQAEDVAVYYCQQYYSFPWTFGGGTKVEIK
modifications: left off: a dimerising Fc or GST
notes: "1st version of humanized antibody BGA-4348", CDR-grafted from BGA-3295, human IgG1 variant format
